# According to article PMC2920321, “Characterization of ftsZ Mutations that Render Bacillus subtilis Resistant to MinC” (PLoS ONE, 2010):
# B1: FtsZ8 (FtsZ S219L) (natural protein, B. subtilis, UniProt P17865 1-382, looked up)
# chain: MLEFETNIDGLASIKVIGVGGGGNNAVNRMIENEVQGVEYIAVNTDAQALNLSKAEVKMQIGAKLTRGLGAGANPEVGKKAAEESKEQIEEALKGADMVFVTAGMGGGTGTGAAPVIAQIAKDLGALTVGVVTRPFTFEGRKRQLQAAGGISAMKEAVDTLIVIPNDRILEIVDKNTPMLEAFREADNVLRQGVQGISDLIATPGLINLDFADVKTIMLNKGSALMGIGIATGENRAAEAAKKAISSPLLEAAIDGAQGVLMNITGGTNLSLYEVQEAADIVASASDQDVNMIFGSVINENLKDEIVVTVIATGFIEQEKDVTKPQRPSLNQSIKTHNQSVPKREPKREEPQQQNTVSRHTSQPADDTLDIPTFLRNRNKRG
# notes: FtsZ, Bacillus subtilis, mutant ftsZ8; source: overexpression plasmid pSG5333 (Ptac-ftsZ8, derivative of pCXZ); purified essentially as described [21]
# Target: the molecule itself
# Test: sedimentation of polymers by ultracentrifugation; FtsZ 10 µM, pH 6.5 buffer, with ZapA (10 µM), without DEAE-dextran
protein,measurement,value
B1,binding result,binds
